Experimental data published in paper doi:10.1101/791277, “Assembly of novel, nuclear dimers of the PI3-Kinase regulatory subunits underpins the pro-proliferative activity of the Cdc42-activated tyrosine kinase, ACK” (bioRxiv, 2019).
Where no end group is shown, it is not given here. [ ]: non-standard residue; d: D form. The star is where a group is joined. 5FAM = O=C1OC2(c3ccc(O)cc3Oc3cc(O)ccc32)c2ccc(C(=O)*)cc21; pY = N[C@@H](Cc1ccc(OP(=O)(O)O)cc1)C(=O)O

Columns and labels:
p85α cSH2 (614-720) = biological target: T1, p85α cSH2 (614-720) (human, UniProt P27986 614-720); assay: fluorescence polarisation; 5-FAM peptide at 20 nM (CD28, p85α, phospho-p85α) or 40 nM (p85β, phospho-p85β), SH2 domain titrated; 298 K; anisotropy fitted to a single site binding isotherm; conditions: both partners purified
T1 construct: PI3-Kinase regulatory subunit p85α, C-terminal SH2 domain, residues 614-720; also called cSH2 domain of p85α; source: E. coli, purified (glutathione-agarose, HRV 3C cleavage, S75 size exclusion)

p85β cSH2 (603-712) = biological target: T2, p85β cSH2 (603-712) (mouse, UniProt O08908 603-712); assay: as above; conditions: both partners purified
T2 construct: PI3-Kinase regulatory subunit p85β, C-terminal SH2 domain, residues 603-712; also called cSH2 domain of p85β; source: E. coli, purified (glutathione-agarose, HRV 3C cleavage, S75 size exclusion)
T2 sequence (looked up): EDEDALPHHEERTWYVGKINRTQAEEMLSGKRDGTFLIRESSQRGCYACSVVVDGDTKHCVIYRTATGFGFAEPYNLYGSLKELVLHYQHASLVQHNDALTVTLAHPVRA

T1 sequence (P27986 614-720): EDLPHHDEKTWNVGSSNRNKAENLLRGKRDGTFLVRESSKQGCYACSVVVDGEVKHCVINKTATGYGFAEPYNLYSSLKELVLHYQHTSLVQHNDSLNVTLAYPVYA

binding result (p85α cSH2 (614-720)): binds
binding result (p85β cSH2 (603-712)): binds
B1: CD28 peptide, [5-FAM]-SD-[pY]-MNMTP (peptide)
peptide: 5FAM-SD[pY]MNMTP
notes: known SH2 target phosphopeptide from CD28; also called control peptide from CD28; source: synthetic peptide, bought: Biomatik
